Test results reported in patent US20140072613A1 (published 2014).

T1: GRK7(h) (human, UniProt Q8WTQ7 1-553)
T1 sequence (looked up): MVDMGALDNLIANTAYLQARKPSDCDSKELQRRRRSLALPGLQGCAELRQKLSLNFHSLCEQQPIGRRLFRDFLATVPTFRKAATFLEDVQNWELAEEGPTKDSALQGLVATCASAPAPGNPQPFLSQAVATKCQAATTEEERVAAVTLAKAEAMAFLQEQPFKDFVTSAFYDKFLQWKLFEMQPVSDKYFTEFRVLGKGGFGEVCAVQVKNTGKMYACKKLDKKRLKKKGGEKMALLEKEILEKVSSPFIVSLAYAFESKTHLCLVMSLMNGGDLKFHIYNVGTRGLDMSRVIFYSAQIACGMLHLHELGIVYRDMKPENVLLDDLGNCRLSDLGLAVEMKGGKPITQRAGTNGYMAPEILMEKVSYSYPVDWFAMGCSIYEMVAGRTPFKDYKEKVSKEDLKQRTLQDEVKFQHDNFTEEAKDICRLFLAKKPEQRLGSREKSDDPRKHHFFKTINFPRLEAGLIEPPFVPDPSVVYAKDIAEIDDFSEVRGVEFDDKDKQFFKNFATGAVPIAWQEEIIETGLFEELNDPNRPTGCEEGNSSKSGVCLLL

T2: Haspin(h) (human, UniProt Q8TF76 471-798, limits assumed)
T2 sequence (looked up): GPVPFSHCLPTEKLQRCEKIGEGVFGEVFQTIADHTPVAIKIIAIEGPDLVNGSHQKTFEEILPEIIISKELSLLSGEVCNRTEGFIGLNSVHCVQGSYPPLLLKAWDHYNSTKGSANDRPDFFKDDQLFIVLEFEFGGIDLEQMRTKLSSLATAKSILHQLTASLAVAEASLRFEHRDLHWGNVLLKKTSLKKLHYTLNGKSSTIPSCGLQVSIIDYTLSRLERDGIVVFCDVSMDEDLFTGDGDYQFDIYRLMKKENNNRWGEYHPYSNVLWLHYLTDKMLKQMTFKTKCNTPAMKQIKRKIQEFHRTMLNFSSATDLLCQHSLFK

T3: LKB1(h) (human, UniProt Q15831 1-433)
T3 sequence (looked up): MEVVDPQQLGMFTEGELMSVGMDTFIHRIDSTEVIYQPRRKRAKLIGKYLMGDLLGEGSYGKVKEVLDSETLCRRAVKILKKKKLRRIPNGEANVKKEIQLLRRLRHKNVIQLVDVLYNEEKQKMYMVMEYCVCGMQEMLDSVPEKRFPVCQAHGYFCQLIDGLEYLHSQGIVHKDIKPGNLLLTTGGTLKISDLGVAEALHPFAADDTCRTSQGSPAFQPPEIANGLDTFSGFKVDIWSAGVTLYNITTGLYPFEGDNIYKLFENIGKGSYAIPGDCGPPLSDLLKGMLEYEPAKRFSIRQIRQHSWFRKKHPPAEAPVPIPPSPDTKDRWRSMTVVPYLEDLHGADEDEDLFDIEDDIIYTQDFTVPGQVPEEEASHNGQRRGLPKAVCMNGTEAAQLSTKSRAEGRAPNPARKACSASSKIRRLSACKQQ

T4: NEK2(h) (human, UniProt P51955 1-445)
T4 sequence (looked up): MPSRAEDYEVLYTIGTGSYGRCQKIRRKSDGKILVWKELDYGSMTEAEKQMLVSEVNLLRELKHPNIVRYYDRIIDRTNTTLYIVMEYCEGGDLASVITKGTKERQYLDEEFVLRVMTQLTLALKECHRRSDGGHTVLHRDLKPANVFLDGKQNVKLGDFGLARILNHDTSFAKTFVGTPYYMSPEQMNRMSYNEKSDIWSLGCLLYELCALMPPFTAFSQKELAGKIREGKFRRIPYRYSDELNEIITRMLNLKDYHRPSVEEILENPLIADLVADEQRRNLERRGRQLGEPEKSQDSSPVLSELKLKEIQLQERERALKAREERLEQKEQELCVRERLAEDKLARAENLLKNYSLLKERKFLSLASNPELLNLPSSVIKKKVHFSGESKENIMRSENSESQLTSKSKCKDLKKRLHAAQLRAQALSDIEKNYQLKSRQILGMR

T5: Rse(h) (human, UniProt Q06418 451-890, limits assumed)
T5 sequence (looked up): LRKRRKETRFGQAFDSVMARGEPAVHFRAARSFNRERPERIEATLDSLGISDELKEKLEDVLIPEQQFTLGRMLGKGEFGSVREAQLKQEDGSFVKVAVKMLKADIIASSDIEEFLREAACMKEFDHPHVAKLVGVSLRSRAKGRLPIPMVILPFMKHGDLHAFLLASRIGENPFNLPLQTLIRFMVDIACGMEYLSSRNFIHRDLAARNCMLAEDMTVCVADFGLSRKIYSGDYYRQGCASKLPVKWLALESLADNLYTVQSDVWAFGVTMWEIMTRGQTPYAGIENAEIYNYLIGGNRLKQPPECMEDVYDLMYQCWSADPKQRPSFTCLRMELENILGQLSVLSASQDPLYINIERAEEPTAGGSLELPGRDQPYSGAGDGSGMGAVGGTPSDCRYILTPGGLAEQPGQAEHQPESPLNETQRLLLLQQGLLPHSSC


Tests used:
Assay in all cases: cell-based or functional assay
[1] = molecular target: Abl(T315I)(h) (human, UniProt P00519 27-1130, limits assumed)
[2] = molecular target: T1, GRK7(h)
[3] = molecular target: T2, Haspin(h)
[4] = molecular target: T3, LKB1(h)
[5] = molecular target: Arg(h) (human, UniProt P42684 38-1182, limits assumed)
[6] = molecular target: T4, NEK2(h)
[7] = molecular target: NEK7(h) (human, UniProt Q8TDX7 1-302)
[8] = molecular target: PTK5(h) (human, UniProt P42685 1-505, limits assumed)
[9] = molecular target: T5, Rse(h)
[10] = molecular target: Tie2(Y897S)(h) (human, UniProt Q02763 771-1124, limits assumed)
[11] = molecular target: TrkA(h) (human, UniProt P04629 441-796, limits assumed)
[12] = molecular target: CLK2(h) (human, UniProt P49760 1-499, limits assumed)
[13] = molecular target: CLK3(h) (human, UniProt P49761 1-490, limits assumed)
[14] = molecular target: DAPK2(h) (human, UniProt Q9UIK4 1-370, limits assumed)
Chain of DAPK2(h) (Q9UIK4 whole entry): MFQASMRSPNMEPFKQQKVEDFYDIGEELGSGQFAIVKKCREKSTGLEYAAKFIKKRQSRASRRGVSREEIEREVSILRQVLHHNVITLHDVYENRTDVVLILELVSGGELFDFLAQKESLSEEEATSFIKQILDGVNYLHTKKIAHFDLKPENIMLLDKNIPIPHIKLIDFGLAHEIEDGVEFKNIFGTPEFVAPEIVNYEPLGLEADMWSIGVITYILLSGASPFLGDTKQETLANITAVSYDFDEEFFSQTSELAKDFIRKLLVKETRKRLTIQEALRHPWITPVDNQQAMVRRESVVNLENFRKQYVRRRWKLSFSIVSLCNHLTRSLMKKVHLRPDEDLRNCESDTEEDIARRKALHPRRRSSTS

Chain of Tie2(Y897S)(h) (Q02763 771-1124 Y897S limits assumed): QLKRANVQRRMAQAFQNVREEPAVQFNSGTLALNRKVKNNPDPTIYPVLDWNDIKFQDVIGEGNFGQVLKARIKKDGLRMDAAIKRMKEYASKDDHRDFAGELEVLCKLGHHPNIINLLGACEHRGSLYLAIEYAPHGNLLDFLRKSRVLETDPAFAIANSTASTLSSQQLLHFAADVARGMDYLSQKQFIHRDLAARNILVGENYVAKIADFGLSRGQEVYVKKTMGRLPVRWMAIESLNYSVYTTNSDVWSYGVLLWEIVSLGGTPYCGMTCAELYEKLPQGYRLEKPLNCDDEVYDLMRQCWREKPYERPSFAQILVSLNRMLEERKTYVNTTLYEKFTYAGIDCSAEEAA
Chain of PTK5(h) (P42685 whole entry): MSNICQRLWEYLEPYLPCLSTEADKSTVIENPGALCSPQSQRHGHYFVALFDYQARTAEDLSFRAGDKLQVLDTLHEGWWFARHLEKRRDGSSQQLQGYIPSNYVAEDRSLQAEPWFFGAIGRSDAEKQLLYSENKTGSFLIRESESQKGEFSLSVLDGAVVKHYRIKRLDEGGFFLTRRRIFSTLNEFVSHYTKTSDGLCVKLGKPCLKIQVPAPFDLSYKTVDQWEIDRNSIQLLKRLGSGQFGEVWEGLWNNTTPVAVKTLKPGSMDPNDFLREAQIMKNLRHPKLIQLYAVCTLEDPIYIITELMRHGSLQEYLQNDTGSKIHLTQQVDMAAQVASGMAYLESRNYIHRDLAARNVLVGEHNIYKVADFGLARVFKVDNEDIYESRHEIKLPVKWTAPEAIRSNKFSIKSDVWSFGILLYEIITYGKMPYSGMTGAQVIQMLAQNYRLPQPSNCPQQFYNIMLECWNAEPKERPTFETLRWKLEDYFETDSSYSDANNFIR
Chain of CLK2(h) (P49760 whole entry): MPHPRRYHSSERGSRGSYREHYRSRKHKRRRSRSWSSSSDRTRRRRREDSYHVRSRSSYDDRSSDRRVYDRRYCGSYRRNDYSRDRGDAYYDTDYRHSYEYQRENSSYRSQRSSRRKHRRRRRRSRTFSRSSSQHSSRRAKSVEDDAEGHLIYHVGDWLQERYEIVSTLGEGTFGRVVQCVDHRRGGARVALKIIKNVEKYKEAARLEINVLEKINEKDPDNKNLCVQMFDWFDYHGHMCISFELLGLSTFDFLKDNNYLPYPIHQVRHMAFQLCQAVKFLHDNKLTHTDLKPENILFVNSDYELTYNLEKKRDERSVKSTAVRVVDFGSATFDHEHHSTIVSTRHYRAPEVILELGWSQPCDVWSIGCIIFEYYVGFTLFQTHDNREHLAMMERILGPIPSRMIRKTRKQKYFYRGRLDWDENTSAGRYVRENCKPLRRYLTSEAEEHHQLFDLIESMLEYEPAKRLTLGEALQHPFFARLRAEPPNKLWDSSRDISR
Chain of Abl(T315I)(h) (P00519 27-1130 T315I limits assumed): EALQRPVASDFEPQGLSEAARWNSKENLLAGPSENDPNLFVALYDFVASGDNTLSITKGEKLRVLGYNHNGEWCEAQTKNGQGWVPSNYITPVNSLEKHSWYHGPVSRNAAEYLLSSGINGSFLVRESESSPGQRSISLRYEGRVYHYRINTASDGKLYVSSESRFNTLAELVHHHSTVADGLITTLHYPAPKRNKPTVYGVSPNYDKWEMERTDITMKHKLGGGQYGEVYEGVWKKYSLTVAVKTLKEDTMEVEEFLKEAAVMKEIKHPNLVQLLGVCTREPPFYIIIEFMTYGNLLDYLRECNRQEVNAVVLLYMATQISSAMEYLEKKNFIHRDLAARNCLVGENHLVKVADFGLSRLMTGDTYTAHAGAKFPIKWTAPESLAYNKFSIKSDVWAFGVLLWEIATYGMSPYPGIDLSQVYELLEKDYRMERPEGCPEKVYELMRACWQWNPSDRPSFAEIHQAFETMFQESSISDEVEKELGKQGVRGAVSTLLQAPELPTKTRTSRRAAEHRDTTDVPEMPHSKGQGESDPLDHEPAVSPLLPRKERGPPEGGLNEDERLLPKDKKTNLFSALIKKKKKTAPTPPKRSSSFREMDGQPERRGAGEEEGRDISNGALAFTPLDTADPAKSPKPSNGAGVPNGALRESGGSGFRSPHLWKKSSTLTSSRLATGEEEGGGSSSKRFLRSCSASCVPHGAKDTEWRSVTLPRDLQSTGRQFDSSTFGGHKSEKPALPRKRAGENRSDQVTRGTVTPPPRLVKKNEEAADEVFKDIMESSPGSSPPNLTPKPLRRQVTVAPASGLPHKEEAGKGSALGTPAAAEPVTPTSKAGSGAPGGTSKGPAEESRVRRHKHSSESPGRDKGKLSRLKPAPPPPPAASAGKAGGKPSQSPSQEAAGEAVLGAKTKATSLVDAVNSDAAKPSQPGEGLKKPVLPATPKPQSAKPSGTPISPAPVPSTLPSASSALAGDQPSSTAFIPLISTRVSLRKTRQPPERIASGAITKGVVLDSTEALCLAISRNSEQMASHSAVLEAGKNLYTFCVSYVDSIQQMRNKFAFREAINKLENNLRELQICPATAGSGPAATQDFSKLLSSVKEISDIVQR
Chain of NEK7(h) (Q8TDX7 whole entry): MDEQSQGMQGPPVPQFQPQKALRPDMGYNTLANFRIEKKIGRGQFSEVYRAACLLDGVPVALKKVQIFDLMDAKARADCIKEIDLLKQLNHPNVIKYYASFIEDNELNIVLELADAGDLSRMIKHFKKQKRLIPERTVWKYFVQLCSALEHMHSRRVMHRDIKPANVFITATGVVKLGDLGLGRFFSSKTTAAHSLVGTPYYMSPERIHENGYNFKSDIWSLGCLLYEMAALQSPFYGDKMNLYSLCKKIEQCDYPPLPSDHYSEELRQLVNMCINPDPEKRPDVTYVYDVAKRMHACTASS
Chain of TrkA(h) (P04629 441-796 limits assumed): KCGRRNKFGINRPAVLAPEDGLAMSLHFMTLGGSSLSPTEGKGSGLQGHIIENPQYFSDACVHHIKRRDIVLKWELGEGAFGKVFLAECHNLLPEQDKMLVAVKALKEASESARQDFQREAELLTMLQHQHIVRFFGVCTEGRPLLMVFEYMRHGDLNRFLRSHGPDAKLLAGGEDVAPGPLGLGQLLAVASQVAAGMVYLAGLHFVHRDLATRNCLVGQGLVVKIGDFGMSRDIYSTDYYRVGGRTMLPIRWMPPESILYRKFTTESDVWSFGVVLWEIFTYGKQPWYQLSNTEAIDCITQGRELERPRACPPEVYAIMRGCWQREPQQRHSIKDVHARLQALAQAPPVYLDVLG
Chain of CLK3(h) (P49761 whole entry): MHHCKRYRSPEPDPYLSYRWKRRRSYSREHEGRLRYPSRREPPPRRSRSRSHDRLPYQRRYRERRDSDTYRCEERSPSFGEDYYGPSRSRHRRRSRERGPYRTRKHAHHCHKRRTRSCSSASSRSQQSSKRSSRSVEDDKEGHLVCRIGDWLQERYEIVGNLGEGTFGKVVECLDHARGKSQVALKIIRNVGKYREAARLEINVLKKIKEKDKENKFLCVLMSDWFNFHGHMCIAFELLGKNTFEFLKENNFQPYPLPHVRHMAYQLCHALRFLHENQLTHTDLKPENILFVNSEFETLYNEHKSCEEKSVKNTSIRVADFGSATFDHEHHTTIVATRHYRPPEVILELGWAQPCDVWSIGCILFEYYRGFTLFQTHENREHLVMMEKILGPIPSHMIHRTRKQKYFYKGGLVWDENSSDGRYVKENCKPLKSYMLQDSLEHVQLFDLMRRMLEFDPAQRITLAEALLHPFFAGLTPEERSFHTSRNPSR

Binder	% activity, 100 µM [1] [%]	% activity, 100 µM [2] [%]	% activity, 100 µM [3] [%]	% activity, 100 µM [4] [%]	% activity, 100 µM [5] [%]	% activity, 100 µM [6] [%]	% activity, 100 µM [7] [%]	% activity, 100 µM [8] [%]	% activity, 100 µM [9] [%]	% activity, 100 µM [10] [%]	% activity, 100 µM [11] [%]	% activity, 100 µM [12] [%]	% activity, 100 µM [13] [%]	% activity, 100 µM [14] [%]
KAFAKLAARLYRKALARQLGVAA [MMI-0400]	105	100	36	89	84	61	87	129	89	87	17	116	84	16
FAKLAARLYRKALARQLGVAA [MMI-0300]	97	122	48	101	72	78	84	132	88	83	25	103	61	32
